The results in this text go back to PMC9482650, “Quantitative fragmentomics allow affinity mapping of interactomes” (Nature Communications, 2022).

B1: FERMT2 (protein, UniProt Q96AC1 1-680, looked up)
Fermitin family homolog 2: MALDGIRMPDGCYADGTWELSVHVTDLNRDVTLRVTGEVHIGGVMLKLVEKLDVKKDWSDHALWWEKKRTWLLKTHWTLDKYGIQADAKLQFTPQHKLLRLQLPNMKYVKVKVNFSDRVFKAVSDICKTFNIRHPEELSLLKKPRDPTKKKKKKLDDQSEDEALELEGPLITPGSGSIYSSPGLYSKTMTPTYDAHDGSPLSPTSAWFGDSALSEGNPGILAVSQPITSPEILAKMFKPQALLDKAKINQGWLDSSRSLMEQDVKENEALLLRFKYYSFFDLNPKYDAIRINQLYEQAKWAILLEEIECTEEEMMMFAALQYHINKLSIMTSENHLNNSDKEVDEVDAALSDLEITLEGGKTSTILGDITSIPELADYIKVFKPKKLTLKGYKQYWCTFKDTSISCYKSKEESSGTPAHQMNLRGCEVTPDVNISGQKFNIKLLIPVAEGMNEIWLRCDNEKQYAHWMAACRLASKGKTMADSSYNLEVQNILSFLKMQHLNPDPQLIPEQITTDITPECLVSPRYLKKYKNKQITARILEAHQNVAQMSLIEAKMRFIQAWQSLPEFGITHFIARFQGGKKEELIGIAYNRLIRMDASTGDAIKTWRFSNMKQWNVNWEIKMVTVEFADEVRLSFICTEVDCKVVHEFIGGYIFLSTRAKDQNESLDEEMFYKLTSGWV
B2: ATP5IF1 (protein, UniProt Q9UII2 26-106, looked up)
ATPase inhibitor, …: GSDQSENVDRGAGSIREAGGAFGKREQAEEERYFRAQSREQLAALKKHHEEEIVHHKKEIERLQKEIERHKQKIKMLKHDD
B3: CRTAP (protein, UniProt O75718 27-401, looked up)
Cartilage-associated protein: QYERYSFRSFPRDELMPLESAYRHALDKYSGEHWAESVGYLEISLRLHRLLRDSEAFCHRNCSAAPQPEPAAGLASYPELRLFGGLLRRAHCLKRCKQGLPAFRQSQPSREVLADFQRREPYKFLQFAYFKANNLPKAIAAAHTFLLKHPDDEMMKRNMAYYKSLPGAEDYIKDLETKSYESLFIRAVRAYNGENWRTSITDMELALPDFFKAFYECLAACEGSREIKDFKDFYLSIADHYVEVLECKIQCEENLTPVIGGYPVEKFVATMYHYLQFAYYKLNDLKNAAPCAVSYLLFDQNDKVMQQNLVYYQYHRDTWGLSDEHFQPRPEAVQFFNVTTLQKELYDFAKENIMDDDEGEVVEYVDDLLELEETS

For the first test, the system named is HEK293T cells. Put plainly: Label-free MS proteome of stable cell lines expressing HPV16 E6 or E6ΔPBM. The format is cell-based, human. The conditions noted are these: protein level, E6 cell line vs control. How it is done: HEK293T and HeLa cells were authenticated and found 100% identity to ATCC cat. CRL-3216 and ATCC cat. CCL-2, respectively. Jurkat and HaCat cell lines were not authenticated (original source: ECACC and Deutsches Krebsforschungszentrum DKFZ, respectively). HeLa cells were grown in DMEM (1 g/L glucose, Gibco) medium completed with 5% FCS and 40 μg/mL gentamicin, diluted every 3rd/4th day 1/10. HaCat cells were grown in DMEM (1 g/L glucose, Gibco) medium completed with 10% FCS and 40 μg/mL gentamicin, diluted every 3rd/4th day 1/4. Jurkat cells were grown in RPMI (Gibco) medium completed with 10% FCS and 40 μg/mL gentamicin, diluted every 3rd/4th day 1/12. All cells were kept at 37 °C and 5% CO2. For proteomics analyses cells were seeded on T-175 flasks. After they reached confluency, adherent cells were washed with PBS once and collected by scraping with ice-cold lysis buffer (Hepes-KOH pH 7.5 50 mM, NaCl 150 mM, Triton X-100 1%, complete EDTA-free protease inhibitor cocktail 1×, EDTA 2 mM, TCEP 5 mM, glycerol 10%). Jurkat cells were collected by 1000 g × centrifugation, washed once with PBS, then collected by 1000 g × 5 min centrifugation again and lysed in ice-cold lysis buffer. Lysates were sonicated 4 × 20 s with 1 s long pulses on ice, then incubated rotating at 4 °C for 30 min. Lysates were centrifuged at 12,000 rpm 4 °C for 20 min and supernatant was kept for further analysis. Concentration determination was carried out by standard Bradford method (Bio-Rad Protein Assay Dye Reagent #5000006) using BSA (MP BIomedicals #160069) as control on a Bio-Rad SmartSpec 3000 spectrophotometer instrument.
The samples were precipitated with TCA 20% overnight at 4 °C and centrifuged at 14,000 rpm for 10 min at 4 °C. The protein pellets were washed twice with 1 mL cold acetone and air dried. The protein extracts were solubilized in urea 8 M, reduced with 5 mM TCEP for 30 min, and alkylated with 10 mM iodoacetamide for 30 min in the dark. Double digestion was performed at 37 °C with 500 ng endoproteinase Lys-C for 4 h, followed by fourfold dilution and an overnight digestion with 500 ng trypsin. Peptide mixtures were then desalted on C18 spin-column and dried on Speed-Vacuum.
Samples were analyzed using an Ultimate 3000 nano-RSLC (Thermo Scientific, San Jose California) coupled in line with a LTQ-Orbitrap ELITE mass spectrometer via a nano-electrospray ionization source (Thermo Scientific, San Jose California). Peptide mixtures were injected in 0.1% TFA on a C18 Acclaim PepMap100 trap-column (75 µm ID × 2 cm, 3 µm, 100 Å, Thermo Fisher Scientific) for 3 min at 5 µL/min with 2% ACN, 0.1% FA in H2O and then separated on a C18 Accucore nano-column (75 µm ID × 50 cm, 2.6 µm, 150 Å, Thermo Fisher Scientific) at 220 nl/min and 38 °C with a 90 min linear gradient from 5% to 30% buffer B (A: 0.1% FA in H2O/B: 99% ACN, 0.1% FA in H2O), regeneration at 5% B. The mass spectrometer was operated in positive ionization mode, in data-dependent mode with survey scans from m/z 350–1500 acquired in the Orbitrap at a resolution of 120,000 at m/z 400. The 20 most intense peaks from survey scans were selected for further fragmentation in the Linear Ion Trap with an isolation window of 2.0 Da and were fragmented by CID with normalized collision energy of 35%. (TOP20CID method) Unassigned and single charged states were excluded from fragmentation. The Ion Target Value for the survey scans (in the Orbitrap) and the MS2 mode (in the Linear Ion Trap) were set to 1E6 and 5E3 respectively and the maximum injection time was set to 100 ms for both scan modes. Dynamic exclusion was set to 20 s after one repeat count with mass width at ±10 ppm.
Proteins were identified by database searching using SequestHT (Thermo Fisher Scientific) with Proteome Discoverer 2.4 software (PD2.4, Thermo Fisher Scientific) on human FASTA database downloaded from SwissProt (reviewed, release 2020_11_27, 20304 entries, https://www.uniprot.org/). […]
Turning to B1, the “Difference log2 E6/Ctrl” value is on record as 0.234 and the “Ratio E6/Ctrl” value was 1.176.
B2: the “Difference log2 E6/Ctrl” value is listed as 4.465 and the “Ratio E6/Ctrl” value came out at 22.0916.
Regarding B3, the “Difference log2 E6/Ctrl” value is 1.355 and the “Ratio E6/Ctrl” value was 2.558.

The test is the same for the next values; noted with them: protein level, dPBM cell line vs E6 cell line.
Turning to B1, the “Difference log2 dPBM/E6” value was -3.123 and the “Ratio dPBM/E6” value came to 0.1148.
The corresponding values for B2 are -4.258 and 0.05227.
The corresponding values for B3 are -3.496 and 0.08864.

Still in this test, the particulars now being: protein level, dPBM cell line vs control.
As to B1, the “Difference log2 dPBM/Ctrl” value was -2.889 and the “Ratio dPBM/Ctrl” value was 0.135.
The corresponding values for B2 are 0.2076 and 1.155.
As for B3, the “Difference log2 dPBM/Ctrl” value is listed as -2.141 and the “Ratio dPBM/Ctrl” value amounted to 0.2267.
